Assay results: article PMC5386341 (Blood Cancer Journal, 2017)

Tests used:
human CD47 [1] = molecular target: T1, human CD47 (human, UniProt Q08722); assay: not stated; binding affinity of IgG2σ mAbs to human and cynomolgus monkey CD47; method is described only in the Supplementary section
T1 construct: CD47, human; the methods are in the Supplementary section; also called integrin-associated protein

cynomolgus monkey CD47 [2] = molecular target: T2, cynomolgus monkey CD47 (Macaca fascicularis, UniProt A0A2K5X4I2); assay: as above
T2 construct: CD47, cynomolgus monkey; also called cyno CD47

human CD47 [3] = molecular target: T3, human CD47 (human, UniProt Q08722); assay: not stated; binding affinity of IgG2σ mAbs to human and cyno CD47; the method stands in the Supplementary Information, not shown
T3 construct: CD47, human; The crystal structures used the human CD47 extracellular domain with a C15G mutation; also called integrin-associated protein

cynomolgus monkey CD47 [4] = molecular target: T4, cynomolgus monkey CD47 (Macaca fascicularis, UniProt A0A2K5X4I2); assay: as above
T4 construct: CD47, cynomolgus monkey; also called cyno CD47

Kd (human CD47 [1]) [nM] | Kd (cynomolgus monkey CD47 [2]) [nM] | Kd (human CD47 [3]) [nM] | Kd (cynomolgus monkey CD47 [4]) [nM] | Binder
2.87 | 2.96 |  |  | IgG2σ C47B161 (antibody, V domains shown, Human IgG2σ (effector function silent Fc)) VH: QVQLVQSGAEVKKPGASVKVSCKASGYTFTDYNMHWVRQAPGQRLEWMGDIYPYNGGTGYNQKFKGRVTITRDTSASTAYMELSSLRSEDTAVYYCARGGWHAMDSWGQGTLVTVSS VL: DIVMTQSPLSLPVTPGEPASISCRSRQSIVHTNRYTYLAWYLQKPGQSPQLLIYKVSNRFSGVPDRFSGSGSGTDFTLKISRVEAEDVGVYYCFQGSHVPYTFGGGTKLEIK
 |  | 0.5 | 0.6 | anti-CD47 mAb B6H12.2 engineered with the human IgG2σ Fc (antibody, V domains shown, heavy chain of B6H12.2 with a human IgG2σ Fc; light chain of B6H12.2; also called IgG2σ B6H12.2) VH: EVKLVESGGDLVKPGGSLKLSCAASGFTFSGYGMSWVRQTPDKRLEWVATITSGGTYTYYPDSVKGRFTISRDNAKNTLYLQIDSLKSEDTAIYFCARSLAGNAMDYWGQGTSVTVSS VL: DIVMTQSPATLSVTPGDRVSLSCRASQTISDYLHWYQQKSHESPRLLIKFASQSISGIPSRFSGSGSGSDFTLSINSVEPEDVGVYYCQNGHGFPRTFGGGTKLEIK
1.12 | 0.84 |  |  | IgG2σ C47B222 (antibody, V domains shown, Human IgG2σ (effector function silent Fc)) VH: EVQLVQSGAEVKKPGESLKISCKGSGYSFTDYWIGWVRQMPGKGLEWMGIIYPGDSDTRYSPSFQGQVTISADKSISTAYLQWSSLKASDTAVYYCARVGRFASHQLDYWGQGTLVTVSS VL: EIVLTQSPATLSLSPGERATLSCRASQSVNNRLAWYQQKPGQAPRLLIHWASTRAIGIPARFSGSGSGTDFTLTISSLEPEDFAVYYCQQGASWPFTFGQGTKVEIK
